Measured values published in PMC5898196 (Science (New York, N.Y.), 2017).

Biological target: the molecule itself
Assay: cryo-EM structure

B1: Recombinant full-length human TRPM4 (hTRPM4b) (natural protein)
chain: not shown
modifications: glycan at Asn992
- stoichiometry N: 4
